25 molecules from patent US20260274955A1 (JANUX THERAPEUTICS, published 2026) can be followed below.

Broadly, the IC50 is the concentration needed to halve the response being measured. A low value points to greater potency. One may read the EC50 as the concentration at which the effect is half-maximal. The low end stands for an effect from little substance, the high end for a need for much substance. What is called Kd is the constant that tells how readily two partners part at equilibrium. The koff is a measure of how fast the partners let go of each other. A low value points to slow dissociation. A word on the kon: it is the second-order rate constant of association. A high value points to fast association. By t½ is commonly meant how long it takes for the measured level to halve. Low readings indicate fast loss, high ones slow loss.

To fix the notation:
T1: Peptide-84 (cysteine pairing not given here; also: biotinylated, site not given here)
T1 construct: optimization library of Peptide-39
T1 peptide: YCEGHLPEYRNKCL

T2: Peptide-86 (cysteine pairing not given here; also: biotinylated, site not given here)
T2 construct: optimization library of Peptide-39
T2 peptide: YCEGHLPEYIQKCL

T3: Peptide-73 (cysteine pairing not given here; also: biotinylated, site not given here)
T3 construct: optimization library of Peptide-39
T3 peptide: YCEGHAPEYIAKCL

T4: Peptide-78 (cysteine pairing not given here; also: biotinylated, site not given here)
T4 construct: optimization library of Peptide-39
T4 peptide: YCEGHLPEYREKCL

T5: Peptide-72 (cysteine pairing not given here; also: biotinylated, site not given here)
T5 construct: optimization library of Peptide-39
T5 peptide: YCEGHLPEYIEKCL

T6: Peptide-79 (cysteine pairing not given here; also: biotinylated, site not given here)
T6 construct: optimization library of Peptide-39
T6 peptide: YCEGHLPEYLAKCL

B1: Peptide-26 (peptide)
peptide: IYWCPIDRWNDCYN
modifications: cysteine pairing not given here; also: biotinylated, site not given here
B2: Peptide-23 (peptide)
peptide: IDWCPRYLWDECYN
modifications: cysteine pairing not given here; also: biotinylated, site not given here
B3: Peptide-44 (peptide)
peptide: SCAAGASYAWPYCL
modifications: cysteine pairing not given here; also: biotinylated, site not given here
B4: Peptide-24 (peptide)
peptide: IDWCPLHLWHECYH
modifications: cysteine pairing not given here; also: biotinylated, site not given here
B5: Peptide-44 (peptide)
peptide: SCAAGASYAWPYCL
modifications: cysteine pairing not given here; also: biotinylated, site not given here
notes: synthetic peptide
B6: Peptide-51 (peptide)
peptide: ACAAGASYAWPYCL
B7: Peptide-53 (peptide)
peptide: SCAAGAAYAWPYCL
B8: Peptide-58 (peptide)
peptide: SCAAGASYAWPYCA
B9: Peptide-57 (peptide)
peptide: SCAAGASYAWPACL
B10: anti-CD28 Fab (Fab, V domains shown)
VH: QVQLVQSGAEVKKPGASVKVSCKASGYTFTSYYIHWVRQAPGQGLEWIGSIYPGNVNTNYNEKFKDRATLTVDTSISTAYMELSRLRSDDTAVYFCTRSHYGLDWNFDVWGQGTTVTVSS
VL: not shown
B11: Peptide-39 (peptide)
peptide: YCAGHAWQYINKCL
modifications: cysteine pairing not given here; also: biotinylated, site not given here
B12: Peptide-25 (peptide)
peptide: VPWCQIISGLECLT
modifications: cysteine pairing not given here; also: biotinylated, site not given here
B13: Peptide-22 (peptide)
peptide: LDWCPRHLWALCFN
modifications: cysteine pairing not given here; also: biotinylated, site not given here
B14: Peptide-1 (peptide)
peptide: MDWCPRDLWVHCFA
modifications: cysteine pairing not given here; also: biotinylated, site not given here
B15: Peptide-12 (peptide)
peptide: KDWCPRDLWVHCFA
modifications: cysteine pairing not given here; also: biotinylated, site not given here
B16: Peptide-7 (peptide)
peptide: EDWCPRDLWVHCFA
modifications: cysteine pairing not given here; also: biotinylated, site not given here
B17: Peptide-16 (peptide)
peptide: TDWCPRDLWVHCFA
modifications: cysteine pairing not given here; also: biotinylated, site not given here
B18: Peptide-39 (peptide)
peptide: YCAGHAWQYINKCL
modifications: cysteine pairing not given here; also: biotinylated, site not given here
notes: synthetic peptide
B19: Peptide-63 (peptide)
peptide: YCAGHAWAYINKCL
notes: alanine scanning peptide of Peptide-39 (Q8A)
B20: Peptide-66 (peptide)
peptide: YCAGHAWQYIAKCL
notes: alanine scanning peptide of Peptide-39 (N11A)
B21: Peptide-68 (peptide)
peptide: YCAGHAWQYINKCA
notes: alanine scanning peptide of Peptide-39 (L14A)
B22: Peptide-65 (peptide)
peptide: YCAGHAWQYANKCL
notes: alanine scanning peptide of Peptide-39 (I10A)
B23: Peptide-62 (peptide)
peptide: YCAGHAAQYINKCL
notes: alanine scanning peptide of Peptide-39 (W7A)
B24: Peptide-31 (peptide)
peptide: ACDTYFAGMINECF
modifications: cysteine pairing not given here; also: biotinylated, site not given here
B25: Peptide-36 (peptide)
peptide: YCAGHSPINIGKCL
modifications: cysteine pairing not given here; also: biotinylated, site not given here

Assay [1] deals with T7, Ab-1.
T7 construct: also called anti-CD28 scFv harbored in Ab-1
Description: competition ELISA, peptide titrated vs 1 nM Ab-1 binding plate-bound CD28.

The target of assay [2] is T7, Ab-1. Put plainly: BLI (Octet), 200 nM peptide, 100 nM Ab-1. (In general: In BLI a coated tip is dipped into the sample, and binding shifts an interference pattern.)
Assay [3] concerns the target T7, Ab-1. Description: binding ELISA, peptide captured, Ab-1 titrated. Background: In an ELISA, binding on a coated surface is turned into a signal by an enzyme label.
The target in assay [4] is T7, Ab-1. Description: BLI (Octet), peptide on sensor, Ab-1 titrated, 1:1 model.
Assay [5] has as its target T8, anti-CD28 Fab (SEQ ID NOs: 202, 203).
T8 construct: biotinylated when captured in the phage ELISAs
Description: binding ELISA, peptide captured, anti-CD28 Fab titrated.

For assay [6] the target is unchanged. The description is as above. The source holds these as a separate data set.
In assay [7] the target is B10. Put plainly: competition ELISA, alanine scan of Peptide-44, Fab binding plate-bound CD28.
The target in the assay “Peptide-39” is B18. Put plainly: BLI, peptide on sensor, Fab in solution, 1:1 model.
In another assay the target is T1, Peptide-84. Description: BLI, peptide on sensor, Fab in solution, 1:1 model.
Another assay addresses T2, Peptide-86. Description: BLI, peptide on sensor, Fab in solution, 1:1 model.
Another assay deals with T3, Peptide-73. Put plainly: BLI, peptide on sensor, Fab in solution, 1:1 model.
The target in a further assay is T4, Peptide-78. Description: BLI, peptide on sensor, Fab in solution, 1:1 model.
The next assay addresses T5, Peptide-72. Put plainly: BLI, peptide on sensor, Fab in solution, 1:1 model.
A further assay concerns the target T6, Peptide-79. Put plainly: BLI, peptide on sensor, Fab in solution, 1:1 model.
In assay [8] the target is T7, Ab-1. Description: binding ELISA, peptide captured, Ab-1 titrated. The source holds these as a separate data set.
In assay [9] the target is T7, Ab-1. Description: BLI (Octet), 200 nM peptide, 100 nM Ab-1. The source holds these as a separate data set.
The target in assay [10] is T7, Ab-1. Description: BLI (Octet), peptide on sensor, Ab-1 titrated, 1:1 model. The source holds these as a separate data set.
The target of assay [11] is T7, Ab-1. Put plainly: BLI (Octet), 20 nM peptide, 100 nM Ab-1.
Assay [12] addresses T7, Ab-1. Put plainly: competition ELISA, peptide titrated vs 1 nM Ab-1 binding plate-bound CD28. This is another data set of the same source.
Assay [13] has as its target B10. Description: competition ELISA, alanine scan of Peptide-39, Fab binding plate-bound CD28.

Read-outs that look alike come from different tables or passages of the source. No end group written: not given here.

As for B1, the half-inhibitory concentration (IC50) with Ab-1 [1] turned out to be 0.41 µM. In addition, the “Octet signal (200 nM peptide)” value with Ab-1 [2] came to 0.705. Further, the response in the assay with Ab-1 [3] was half-maximal at 0.0076 µM (EC50).
Consider B2, for which, in the assay with Ab-1 [4], binding was put at a Kd of 0.016 µM and the t1/2 is 9.1 min. This molecule showed an IC50 with Ab-1 [1] of 0.14 µM. The “Octet signal (200 nM peptide)” value in the assay with Ab-1 [2] came out at 1.52. In addition, in the assay with Ab-1 [3], it took 0.0021 µM to reach a half-maximal effect (EC50).
As to B3, the EC50 in assay [5] came to 0.0189 µM; in [6], 0.054 µM.
For the molecule B4, the IC50 in the assay with Ab-1 [1] worked out at 1.52 µM. Moreover, the “Octet signal (200 nM peptide)” value with Ab-1 [2] worked out at 0.838. In the assay with Ab-1 [3], the half-maximal effective concentration (EC50) came to 0.0133 µM.
Regarding B5, the IC50 with anti-CD28 Fab [7] was 7890 µM.
Same read-out and setting: the figure for B6 is 21000 µM.
In the assay with anti-CD28 Fab [7], B7 came in with an IC50 of 7420 µM.
In the assay with anti-CD28 Fab [7], B8 yielded an IC50 of 76400 µM.
Same read-out and setting: under B9 stands 13000 µM.
For B10, the Kd in the assay with Peptide-39 was 2.02 µM; with Peptide-84 it was 0.11 µM; with Peptide-86, 0.0402 µM; with Peptide-73 it was 0.831 µM; with Peptide-78, 0.141 µM; with Peptide-72 it was 0.926 µM. The molecule also displayed a Kd with Peptide-79 of 0.0447 µM. Besides, the koff with Peptide-39 stood at 0.0202 s⁻¹; with Peptide-84, 0.0138 s⁻¹; with Peptide-86, 0.0115 s⁻¹; with Peptide-73 it was 0.028 s⁻¹; with Peptide-78, 0.0191 s⁻¹; with Peptide-72, 0.0239 s⁻¹. This molecule also came in with a koff with Peptide-79 of 0.0118 s⁻¹. Further, the kon in the assay with Peptide-39 was determined as 10000 M⁻¹ s⁻¹; in the assay with Peptide-84, 125000 M⁻¹ s⁻¹; with Peptide-86 it was 286000 M⁻¹ s⁻¹; with Peptide-73 it was 33700 M⁻¹ s⁻¹; with Peptide-78 it was 135000 M⁻¹ s⁻¹; with Peptide-72, 25800 M⁻¹ s⁻¹. The same molecule showed an on-rate constant (kon) with Peptide-79 of 264000 M⁻¹ s⁻¹. Further, the “t½” value with Peptide-39 turned out to be 0.6 min; with Peptide-84 it was 0.8 min; with Peptide-86, 1 min; with Peptide-73 it was 0.4 min; with Peptide-78 it was 0.6 min; with Peptide-72, 0.5 min. For the same molecule, the “t½” value with Peptide-79 was 1 min.
B11 showed an EC50 in assay [6] of 0.049 µM.
In the assay with Ab-1 [1], B12 gave an IC50 of over 100 µM. In addition, the “Octet signal (200 nM peptide)” value with Ab-1 [2] came to 0.166. The molecule further had an EC50 in the assay with Ab-1 [3] of 0.0549 µM.
B13 yielded an IC50 with Ab-1 [1] of 0.47 µM. The “Octet signal (200 nM peptide)” value with Ab-1 [2] amounted to 0.697. Besides, the EC50 in the assay with Ab-1 [3] came out at 0.0082 µM.
On to B14, for which the 50% inhibitory concentration (IC50) in the assay with Ab-1 [1] came out at 0.2 µM; in the assay with Ab-1 [12], 0.06 µM. Also, the EC50 is 0.004 µM with Ab-1 [8], 0.49 µM in assay [6] and 0.001 µM with Ab-1 [3]. In the assay with Ab-1 [9], the Octet signal is 2.03. The figures for the t1/2 with Ab-1 [9] and in the assay with Ab-1 [10] were 9.8 min and 15.5 min, respectively. This molecule came in with a Kd with Ab-1 [10] of 0.0151 µM. In addition, in the assay with Ab-1 [2], the “Octet signal (200 nM peptide)” value came out at 1.8. In the assay with Ab-1 [11], the “Octet signal (20 nM peptide)” value stood at 0.509.
In the assay with Ab-1 [8], B15 yielded an EC50 of 0.0197 µM. Moreover, in the assay with Ab-1 [9], the Octet signal came out at 1.13 and the t1/2 was determined as 4 min. In the assay with Ab-1 [10], this molecule yielded a Kd of 0.0261 µM and a t1/2 of 4.5 min. In addition, the 50% inhibitory concentration (IC50) in the assay with Ab-1 [12] turned out to be 0.19 µM.
In the assay with Ab-1 [8], B16 showed an EC50 of 0.0328 µM. Further, in the assay with Ab-1 [9], the Octet signal worked out at 1.02 and the t1/2 is 3 min. In the assay with Ab-1 [10], this molecule showed a Kd of 0.0232 µM and a t1/2 of 3.1 min. Moreover, the IC50 with Ab-1 [12] was determined as 0.3 µM.
B17 displayed an EC50 in the assay with Ab-1 [8] of 0.024 µM. Moreover, in the assay with Ab-1 [9], the Octet signal is 1.34 and the t1/2 is 4.2 min. In the assay with Ab-1 [10], this molecule yielded a Kd of 0.0255 µM and a t1/2 of 4.7 min. The molecule further had an IC50 with Ab-1 [12] of 0.59 µM.
Regarding B18, the IC50 with anti-CD28 Fab [13] was 12600 µM.
Turning to B19, the IC50 with anti-CD28 Fab [13] was determined as 12300 µM.
As to B20, in the assay with anti-CD28 Fab [13], the IC50 is 5490 µM.
Same read-out and setting: under B21 stands 98600 µM; under B22, 102000 µM; under B23, 3160 µM.
Turning to B24, in [6], the EC50 worked out at 0.097 µM.
B25 came in with an EC50 in assay [6] of 0.337 µM.
